Experimental data taken from the DeepSol protein solubility set.

Assay: soluble on expression in E. coli; label from the status in PepcDB or PDB records

Row | Sequence | soluble on expression in E. coli
1 | MSTPRIVVGVSGGVDSSVAAWKLAQQGEPIAGLFMQNWADDGSGDCRAEDDRRDAVAVCGVLGIPFHFRDFSGEYWSDVFEHFLAEYAAGRTPNPDVLCNREVKFKHFLDAAQALGAERIATGHYAQVAHRGGRWRLLRGADRGKDQSYFLHQLGQTQLAATLFPIGDLEKSTLRRIAQDAGLPTHAKKDSTGICFIGERDFREFLGRYLPARTGEIRDPQGQRIAEHPGVFYFTLGQREGLNIGGVRGRAAAPWYVVGKDVANNVLYVDQDRDSPLLQSRWLQSEQAHWVTGAPPARRFSCTAQTRYRQPDESCTVDVQDDGSVQVRFERPQRAVTPGQSLVLYDGEECLGGAVIAATDAPLERQLAGSSFSSEVVALEHHHHHH | not soluble
2 | MGSDKIHHHHHHMLYQGVSLILAPLLVFQGLNVRRTTPRLPEPEGERVGQTGANPALSLLILGDSAAAGVGVAFQQHALLGQVIEQLSPQLEFSYGLFAKTGSTTSTTLQALQEQIDIAHPILGQTHFDVIVTSLGVNDITSSISCEKWLLQQKALFELITKRYTPKLILVTALPPLGLFPALPHPLRWSLGQRANQFNRQLQQLLIKLNQQVDQPTDFRLIKLPLENPQPDITMLEFMRQVMASDGFHPGAPIYSAWANLVVEQIVGGIKSAAIA | not soluble
3 | MGSDKIHHHHHHMNSTITPTLNLKAQHAERRVVVTGASGYVGARLVVELLSTGFNVRATSRSLSSLKRFPWYDQVEAVEADLSISEDVNRLFEDVDTVFYLVHSMSGTQNFEELESKIASKVAQAAHSNGVRQIIYLSGLHPRTELDKLSPHMRSRENVARILGSTAVPAITFRAATLIGSGSASFEMIRHLTERLPIMVAPQWINNKIEPISIRDTLYYLVKAADLPEPINEEFDIGSGHIYTFADLLRIYGKIRGLRRTIVSLPIPLPLDTLSGLWIAAITPAPLSLAQPLAQSMQEDAICSNRSIRDYISDPPSGLADYPTSVRRALQQESMGVLSSWDSSWKNLSSTDHLPSDPEWTGRTVYSDVQEQSFRSEPAKVWRVIEGIGGHHGWYSTPLLWFVRGVIDKAIGGPGLGGRRDPNRLRVGDRVDFWRVEEVTPEKQLTLRAEMRASGQAWLQFTINGNTLRQRAVYFPKGLLGRVYWLALIPFHAVIFPTMLRNIIQAGDN | not soluble
4 | GPLGSATITQDTPINQIFTDTALAEKMKTVLGKTNVTDTVSQTDLDQVTTLQADRLGIKSIDGVEYLNNLTQINFSNNQLTDITPLKNLTKLVDILMNNNQIADITPLANLTNLTGLTLFNNQITDIDPLKNLTNLNRLELSSNTISDISALSGLTSLQQLSFGNQVTDLKPLANLTTLERLDISSNKVSDISVLAKLTNLESLIATNNQISDITPLGILTNLDELSLNGNQLKDIGTLASLTNLTDLDLANNQISNLAPLSGLTKLTELKLGANQISNISPLAGLTALTNLELNENQLEDISPISNLKNLTYLTLYFNNISDISPVSSLTKLQRLFFYNNKVSDVSSLANLTNINWLSAGHNQISDLTPLANLTRITQLGLNDQAWTNAPVNYKANVSIPNTVKNVTGALIAPATISDGGSYTEPDITWNLPSYTNEVSYTFSQPVTIGKGTTTFSGTVTQPLKA | soluble
5 | MSRDIDYGNLMHTAMRGLIKTVLADVAQHGLPGAHHFFITFDTRYEGVQLADWLADRYPGEMTIVMQHWYENLDVGEDGFAITLNFGDSPEPLYIPYDAIRTFVDPSVEFGLRFESPDFDEDDEDDIEVEEEPDAPKPDAEVVSLDSFRKPLEHHHHHH | soluble
6 | MGGRSNSATTAAQQNAVLRIVVVGGGGVGKSALTIQFIQRYFVQDYDPTIEDSYTKQCFVDEDLCKLEILDTAGQEEFSTMREQYLRTGSGFLIVFAVTDRNSFEEVKKLHELICRIKDRDDFPIILVGNKADLENERHVARHEAEELAHRLSIPYLECSAKIRKNVDEAFFDIVRLVRKYQHDERMPIHPHDDRKLESPIKLKKKKNCRIQ | soluble
7 | MIIVRLCGGLGNQMFQYAAGLAAAHRIGSEVKFDTHWFDATCLHQGLELRRVFGLELPEPSSKDLRKVLGACVHPAVRRLLSRRLLRALRPKSLVIQPHFHYWTGFEHLTDNVYLEGYWQSERYFSNIADIIRQQFRFVEPLDPHNAALMDEMQSGVSVSLHIRRGDYFNNPQMRRVHGVDLSEYYPAAVATMIEKTNAERFYVFSDDPQWVLEHLKLPVSYTVVDHNRGAASYRDMQLMSACRHHIIANSTFSWWGAWLNPRPDKVVIAPRHWFNVDVFDTRDLYCPEWIVLLEHHHHHH | soluble
8 | MGRFQTLDYEIPESMQRSWQDIVNLLAQIADVPTTLIMRVHQNHIEVNTSSDTQGNPYKAGDKEDLGHGLYCEHVIETKSQLVVPDALADEKWSNNPDIKLGMLSYCGLPLFWPNGETFGTICMLDSKANEYSETYRQLLNTFKDSIEAQLAVVYQQYKLLR | not soluble
9 | MYDAIVVGGGFSGLKAARDLTNAGKKVLLLEGGERLGGRAYSRESRNVPGLRVEIGGAYLHRKHHPRLAAELDRYGIPTAAASEFTSFRHRLGPTAVDQAFPIPGSEAVAVEAATYTLLRDAHRIDLEKGLENQDLEDLDIPLNEYVDKLDLPPVSRQFLLAWAWNMLGQPADQASALWMLQLVAAHHYSILGVVLSLDEVFSNGSADLVDAMSQEIPEIRLQTVVTGIDQSGDVVNVTVKDGHAFQAHSVIVATPMNTWRRIVFTPALPERRRSVIEEGHGGQGLKILIHVRGAEAGIECVGDGIFPTLYDYCEVSESERLLVAFTDSGSFDPTDIGAVKDAVLYYLPEVEVLGIDYHDWIADPLFEGPWVAPRVGQFSRVHKELGEPAGRIHFVGSDVSLEFPGYIEGALETAECAVNAILHSHHHHHH | soluble
10 | MTTRTRILTGITTTGTPHLGNYAGAIRPAIVASRDSNADSFYFLADYHALIKCDDPLRIQRSRQEIAATWLAGGLDVERVTFYRQSDIPEIPELTWLLTCVAAKGLLNRAHAYKASVDKNVEAGEDPDAGITMGLYSYPVLMAADILMFNAHKVPVGRDQIQHVEMARDIGQRFNHLFGQGKEFFTMPEALIEESVATLPGLDGRKMSKSYDNTIPLFTSAKDMKDAISRIVTDSKAPGEAKDPDNSHLFTLYQAFSTPAQAAEFRSELLHGLGWGEAKNRLFQLLDAELGEARERYHQLIARPSDLEDILRAGAVKARAVATPFLNELREAVGLRSFAAQVQVAATTKKKAAKAARFISFREDDGSFRFRLLSADGEQLLLSRNFADGKAAGAVTKQLQSGQELDLRTEGNAFGIWLDGACVADSPDFADASARDAAVDALRIALTPAQDLEHHHHHH | soluble
11 | MDELTAFNQCLAWLTHTTALPEHLDGLVLCGNSLPATATAAGQLAQDYQLPLLIIAGGVGHATKYLRQNLNLPKSQASEAELMATLVRKTGYQGSIRLDKTSTNTGSNATHARALAPTDWRHVLLVQDPLLARRTTLTFSANWSNANFIRYAPATLQLNRLQPMQFTPNTIVAGWQPAYFTELLLGEFQRLVDTPTGYGPRGQGFIAHVDIPEEVLAAARYLQSQSLHRQRLEHHHHHH | soluble
12 | MAHHHHHHMRKKLVLPLSIGRGFSSWDDGSDGHEWKSRALAEKRLLALTYLGDVNKRVQIHDAIRLRGEVNKQAIRACELPTFFQTKETNEAENLQEIDYHSLLSMIEGEFEVDTLAHIAPSDANFLKTEFLQCDDSAEVKLLGQWSNLRRDTADYNNYASIPDGERNAWSAWYLRNVRPGKTEND | not soluble
13 | MEAKQRIIPAIKTMKQFDAFLSSGYTVGVLLEVHIAQLKSIFAYARRHGKELIVHVDLVQGLSHDEHAAEYLCQEFRPHGLISTKAGVIMKARQKRVLAVQRIFLLDSHALEKSYQLIAKTNPDCIEVIPGAMPHIIREVKERTGKPIYAGGLIRTVDDVERALAAGAAAVTTSNETLWRHYNG | not soluble
14 | MLELAILGLLIESPMHGYELRKRLTGLLGAFRAFSYGSLYPALRRMQADGLIAENAAPAGTPVRRARRVYQLTDKGRRRFGELVADTGPHNYTDDGFGVHLAFFNRTPAEARMRILEGRRRQVEERREGLREAVARASSSFDRYTRQLHQLGLESSEREVKWLNELIAAERAAPNPAEQT | not soluble
15 | TNTEEFCSGCHAPIVKEIQETIHYSNRSGVRAICSDCHVPHNWTDKIVRKVQASKELFAHYVTKTIDTEEKFKERRAHLAEREWHRMKENNSQECRNCHEFDYMDFSEQGPRSAKQHSTALASGEKTCVDCHKGIAHKL | not soluble
16 | MGSDKIHHHHHHMSPPVRPVDHLIPEGAMTSFFDFAISQLPAATADRRGPAPDDIDAMLRRDSFAAALRLLAGSFIALYEGSPEMTTLFATRQSRLLCHALLALYFQKSTAEEGEIALTREDFGHLALRHGLASDRVAYVFFKEALKRGLTRPVDATEDQATGVVPSPPALAMLAQWYDVHFQALDLLDEGFRASRFIQRSETTLPHIHPHVSRAFLSHPEVRCPGPLSIIFNWFDAGGLLMDRLIAGIDRELPAEQGRRFTDVQTVTQLATSLSLSRSHVGRKLAAAELIGGIGWSGRRGRSALWISQGFYEEYARTQARKLLILDEALIGFV | not soluble
17 | MSLIINNIALHFLSKKEETGEVVLRLGPENAEFAQENAKVTNFVDGLHAIYNAKGSKAYGSFSSMPSEGDSARFVDLMESYLTEQQNFYDFSVQAGNVLKNEIEKYDIEETGYFVICHYEYMGGRYLFVAVIPVSEHYSVDGELNISAAQHLDTNKLQLAARIDLFDYKDNSQGNRYISFVKGRAGRKVSDFFLDFLGCEEGLNSKEQTQTLVQAVEDYVSVNQLDPAEKQKTRKDLLSYCKEQKASSQDVSLQEVGKVIESAGTEQDFYQFCQTQSYPIEESFPHEQAVVNKITKYSGYGNGISLSFERSHFGEDVVYNPHNDSLIIYKVPPNLKEQLMALLDSEKVETDLEHHHHHH | not soluble
18 | MGDSFYIRTHFELEPSPPSGLGFTRGDVFHVLDTLHPGPGQSHARGGHWLAVRMGRDLREQERGIIPNQSRAEQLASLEAAQRAVGVGPGSSAGSNARAEFWRLRGLRRGAKKTTQRSREDLSALTRQGRYPPYERVVLREASFKRPVVILGPVADIAMQKLTAEMPDQFEIAETVSRTDSPSKIIKLDTVRVIAEKDKHALLDVTPSAIERLNYVQYYPIVVFFIPESRPALKALRQWLAPASRRSTRRLYAQAQKLRKHSSHLFTATIPLNGTSDTWYQELKAIIREQQTRPIWTAEDQLHHHHHH | soluble
19 | MGSDKIHHHHHHMEKFDVIVVGGGPAGLSAAISAAQAGMKTAVIERGDYPGTKNVMGGVLYTEATNEVVPDFWKEAPLERPVIEQRYAFLSKDEILSAGYRDPAWGQPPYNAHTVLRVKFDRWLADQAVKAGVMIITETLVEDLLYHGDDVVGVRTGRAEGDLGAQVVILAEGANNFLACKAGLAKPLRPENMAVVVKEIIELPPEKIEDRFCLEPHEGATIELFGDSTDGMMGTSFIYTNKNSLSIGVGAMVHSMSEKGWSPNDLLENLKAKPYVKRLLQGGETKEYLAHLIPEGGYNAIPKLYRQGVMVVGDTAMFVNGLNREGSNLAMISGKIAGKVAAEAIQSGDLSAHGMSVYESRLRDSFVIKDLYKFRKLMPFIESNPHLLGQYPEILNQAARMYFTADGTPKAQVFSNIMDMMFKKRTKTGLVKDMFNAWRALK | not soluble
20 | MNTVFSNIANAKITEKSLNAVWMDLFKSADEVLMATGYVSNDAVVELHKILELNDHIQKIDLLVGMHYLEGFSHLQYDSLCKLNDFLRHEKRGAVYVSPFVKFHGKMYSFKNYQKINGLIGSANLTCFWDSTERTYETMLHLNGKPAQILQADIQSTIHKLGKNIQEVERPSKFIEHNSHLENCLGVQKIAPEQIRQLFAQTSEYHFSIPAKTEEKSNLNVFFGEGRRDKRGFVKPRPWYEVELIVSKDITSQEGYPVLKSFTVITDDGWQFQCKTSGDYSKNFRSENDLKTLGKWIKGRLESHGCLQNNEKITHETLREYGNDHFELRSTDNPDVWLLSFKGKN | not soluble
